We go through 14 molecules from patent US20220135655A1 (Dana-Farber, published 2022).

B1: 1E6 (scFv)
scFv: QVQLVQSGAEVKKPGSSVKVSCKASGVTFSSYAISWVRQAPGQGLEWMGGISPIFGTANYAQKFQGRVTITADESTSTAYMELSSLRSEDTAVYYCARGREYYASNGDSFDVWGQGTLVTVSSGGGSGGGSGGGSGGGSQPVLTQPPSVSVAPGKTASISCEGNNIATKSVHWYQQKSGHAPVVVVYHDSDRPSGVPDRFSGSKSGTSASLAISGLRSEDEADYYCAAWDDSLSGPWVFGGGTKLTVL
B2: 1F1 (scFv)
scFv: QVQLVQSGAEVKKPGSSVKVSCKASGGTFSSYAISWVRQAPGQGLEWMGGISAIFGTANYAQKFQGRVTITADESTRTAYMELSSLRSEDTAVYYCARGSGYYVAASGAFDVWGQGTLVTVSSGGGSGGGSGGGSGGGSQPGLTQPPSVSKGLRQTATLTCTGNINNVGDQGAGWLQQHQGRPPKLLSYRNSNRPSGVSERFSASRSGNTASLTITGLQPEDEADYYCSAWDSSLSDWVFGGGTKLTVL
B3: 1H4 (scFv)
scFv: QVQLVQSGAEVKKPGSSVKVSCKASGVPFSSYAISWVRQAPGQGLEWMGGISPLFGTANYAQKFQGRVTITADQSTSTVYMELSSLRSEDTAVYYCARGLGTYSPSLYPRGMDVWGQGTLVTVSSGGGSGGGSGGGSGGGSLPVLTQPPSASGTPGQSVTISCSGSSSNIGRNDVNWYQQFPGRAPKLLIYGRDERPFGVPARFSGSKSGTSASLAISGLQSEDEADYYCAAWDASLMIYVFGTGTTVTVL
B4: 2B6 (scFv)
scFv: QVQLVQSGAEVKKPGSSVKVSCKASGGPFSSYAISWVRQAPGQGLEWMGGISPIFGTANYAQKFQGRVTITADKSTNTAYMELSSLRSEDTAVYYCARGRSYIVSVSPGFDVWGQGTLVTVSSGGGSGGGSGGGSGGGSQSVLTQPPSASGSPGQSVTISCTGTSSDVGGYNYVSWYQQYPGKAPKLMIYEVSKRPSGVPDRFSGSKSGTSASLAISELQSEDEADYYCASWDDSLNAYVFGSGTKVTVL
B5: 1F3 (scFv)
scFv: QVQLVQSGAEVKKPGSSVKVSCKASGVIFSSYAISWVRQAPGQGLEWMGGISPIFGTANYAQKFQGRVTITADESTSTAYMELSSLRSEDTAVYYCARSRGYAPGTSFHYDVWGQGTLVTVSSGGGSGGGSGGGSGGGSLPVLTQAPSMSVAPGKTASITCGGDNIGSKSVHWYQQKPGQAPVLVMYYDSDRPSGIPERFSGSNSGNTATLTISRVEAGDEADYFCQLWDHTNSHVVFGGRTKLTVL
B6: 2E12 (scFv)
scFv: QVQLVQSGAEVKKPGSSVKVSCKASGVTFSSYAISWVRQAPGQGLEWMGGISPMFGTANYAQKFQGRVTITADESTNTAYMELSSLRSEDTAVYYCARGGGYYPAGVGRYDVWGQGTLVTVSSGGGSGGGSGGGSGGGSDIVMTQSPDSLAVSLGERATINCKSSQNVLYSSNNKNNLAWYQQRPGQPPKVLLYWASTRASGVPDRFSGSGSGTDFTLTINSLQAEDVALYYCQQYYGKPFTFGPGTKVEIK
B7: 2A11 (scFv)
scFv: QVQLVQSGAEVKKPGSSVKVSCKASGVTFSSYAISWVRQAPGQGLEWMGGISPVFGTANYAQKFQGRVTITADDSTNTAYMELSSLRSEDTAVYYCARSRGYTVSSLAGRYFDQWGQGTLVTVSSGGGSGGGSGGGSGGGSETTLTQSPGTLSLSPGERASLSCKASESLCSTCLAWYQQKPGQAPRLIVYGATSRATGIPDRFSGSGSGTDFTLTISRLEPEDFAVYYCQQYGSSPQTFGQGTKVEIK
B8: 1F12 (scFv)
scFv: QVQLVQSGAEVKKPGSSVKVSCKASGGIFSSYAISWVRQAPGQGLEWMGGITPIFGTANYAQKFQGRVTITADESTRTAYMELSSLRSEDTAVYYCARDLSRDSLNLPGSSPGYDLWGQGTLVTVSSGGGSGGGSGGGSGGGSETTLTQSPGTLSLSPGERATLSCRASQSVSSNLAWYQQKPGQAPRLLIYGASTRATGIPARFSGSGSGTEFTLTISSLQSEDFAVYYCQQYSSSPYTFGQGTKLEIK
B9: 2C1 (scFv)
scFv: QVQLVQSGAEVKKPGSSVKVSCKASGGIFSSYAISWVRQAPGQGLEWMGGISAIFGTANYAQKFQGRVTITADESTSTAYMELSSLRSEDTAVYYCARDSGIASGYTAYMDYWGQGTLVTVSSGGGSGGGSGGGSGGGSSSELTQDPAVSVALGQTVRITCQGDSLRTSYASWYQQKPGQSPVLVIYQSTKRPSGIPERFSASSSGNTASLTITGAQAEDEADYYCNSRGSGGNPYVFGTGTKVTVL
B10: 1F6 (scFv)
scFv: QVQLVQSGAEVKKPGSSVKVSCKASGGTFSSYAISWVRQAPGQGLEWMGGIITIFGTANYAQKFQGRVTITADESTNTAYMELSSLRSEDTAVYYCARGGGGRFDVWGQGTLVTVSSGGGSGGGSGGGSGGGSSYELTQPPSVSGTPGQRVTISCSGSTSNIGNNALNWYQKLPGTAPKLLIYSLNQRPSGVPDRFSGSKSGTSASLAISGLQSEDEADYYCEAWDDSLSGPVFGGGTKVTVL
B11: 1F5 (scFv)
scFv: QVQLVQSGAEVKKPGSSVKVSCKASGGTFSSYAISWVRQAPGQGLEWMGGISPIFGTANYAQKFQGRVTITSDESTSTAYMELSSLRSEDTAVYYCARDQGGTRGNYFDVWGQGTLVTVSSGGGSGGGSGGGSGGGSQPVLTQPPSVSKGLRQTATVTCTGNSNNVGNQGAAWLQQHQGHPPKLLSYRNNNRPSGISERLSASRSGNTASLTIAGLQPEDEADYYCSAWDNTVSGWVFGGGTRVTVL
B12: 2E11 (scFv)
scFv: QVQLVQSGAEVKKPGSSVKVSCKASGGTFSSYAISWVRQAPGQGLEWMGGINPIFGTANYAQKFQGRVTITADESTNTAYMELSSLRSEDTAVYYCARGESAYYSRNYDVWGQGTLVTVSSGGGSGGGSGGGSGGGSSYELTQPPSVSKGLRQTATLTCTGNSSNVGNQGASWLQQHQGHPPKLLSYRNDNRPSGISERFSASRSGNTASLTITGLQPEDEADYYCSAWDNSLSAWVFGGGTKLTVL
B13: 2A1 (scFv)
scFv: QVQLVQSGAEVKKPGSSVKVSCKASGVIFSSYAISWVRQAPGQGLEWMGGIIPIFGTANYAQKFQGRVTITADKSTSTAYMELSSLRSEDTAVYYCARGGSGSFDVWGQGTLVTVSSGGGSGGGSGGGSGGGSQPGLTQPPSASGTPGQRVTISCSGSSSNLGSNYVFWYQHLPGAAPKLLIYRNSQRPSGVPDRFSGSKSGTSASLAISGLQSEDEADYYCAAWDDSLNGVVFGGGTKLTVL
B14: 1H2 (scFv)
scFv: QVQLVQSGAEVKKPGSSVKVSCKASGGPFRSYAISWVRQAPGQGLEWMGGIIPIFGTANYAQKFQGRVTITADESTSTAYMELSSLRSEDTAVYYCARGGVYSFDVWGQGTLVTVSSGGGSGGGSGGGSGGGSQSGLTQPPSASGTPGQRVTISCSGSGSNVGSNVVNWYQHLPGTAPKLLIYRNNQRPSGVPDRFSGSKSGTSASLAISGLQSEDEADYYCAAWDDRLNGFVFGTGTKVTVL

The target in this experiment is A/California/04/2009 (H1CA0409) recombinant HA (influenza A virus A/California/04/2009, UniProt P26140 18-529). The experiment is described as follows: phage display panning (immunotube) against trimeric HA.
Turning to B1, the binding result is listed as “binds”.

In the case of B2, the binding result was “binds”. For B3 the value was “binds”; for B4, “binds”. In the case of B5, the binding result was “binds”. For B6 the value was “binds”; for B7, “binds”. Regarding B8, the binding result was “binds”. In the case of B9 it was “binds”; in that of B10, “binds”; in that of B11, “binds”.

In the case of B12, the binding result is reported as “binds”. For B13 the value was “binds”; for B14, “binds”.
